What is called Kd is the free concentration of one partner at which half of the binding sites on the other are occupied at equilibrium, for simple one-to-one binding. Low values mean tighter binding, high ones weaker binding. A word on the IC50: it is the concentration needed to halve the response being measured. A lower IC50 goes with greater potency in that assay.

Assay [1] addresses T1, soluble human TNFR2 (human, UniProt P20333 23-257).
T1 construct: also called soluble TNFR2
T1 sequence (looked up): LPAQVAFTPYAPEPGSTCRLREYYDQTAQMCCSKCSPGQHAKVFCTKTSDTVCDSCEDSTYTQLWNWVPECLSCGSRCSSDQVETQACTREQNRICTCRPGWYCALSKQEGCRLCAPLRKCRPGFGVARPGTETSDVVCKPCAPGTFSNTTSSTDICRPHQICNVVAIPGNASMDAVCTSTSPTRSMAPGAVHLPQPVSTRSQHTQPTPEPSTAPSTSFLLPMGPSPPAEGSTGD
The experiment in a line: competition ELISA, plate-bound soluble human TNFR2, biotinylated TNFα as competitor. The procedure:
(§1) Soluble human TNFR2 (Sino Biological, 10417-H08H) or cynomolgus TNFR2 (Sino Biological, 90102-C08H) was coated on Nunc-Immuno™ plates at 0.1 μg/ml, 0.5 ug/ml, 1 μg/ml, and 5 μg/ml. […] Plates were developed using TMB and stopped with 3 M HCl.
(§2) IC₅₀ values are reported in nM.
A general note: ELISA stands for enzyme-linked immunosorbent assay.

Assay [2] concerns the target T2, soluble cynomolgus TNFR2 (cynomolgus, UniProt A0A2K5VET2 132-366).
T2 sequence: T1 sequence (looked up) with S16G, S36P, P117Q, N164H, E210A, S216G, M223V
The experiment in a line: competition ELISA, plate-bound soluble cynomolgus TNFR2, biotinylated TNFα as competitor. The procedure: as §1, §2

Assay [3] addresses T3, monomeric human TNFR2 extracellular domain (human, UniProt P20333 23-257).
T3 construct: extracellular domain; Analyte in the Octet experiments; also called human TNFR2 ECD
T3 sequence (looked up): T1 sequence (looked up)
Nature of the assay: BLI (Octet Red 96), antibody captured on Fc biosensor, monomeric TNFR2 ECD in solution, 1:1 model. In general terms: BLI is a label-free optical method that tracks binding on a fibre tip over time.

In assay [4] the target is T4, monomeric cynomolgus TNFR2 extracellular domain (cynomolgus monkey, UniProt A0A2K5VET2 132-366).
T4 construct: extracellular domain; Analyte in the Octet experiments; also called cynomolgus TNFR2 ECD; Cyno TNFR2
T4 sequence: T1 sequence (looked up) with S16G, S36P, P117Q, N164H, E210A, S216G, M223V
The description is as above.

The target in assay [5] is T1, soluble human TNFR2. Nature of the assay: competition ELISA: plate-bound soluble human TNFR2, competitor biotinylated TNFα, streptavidin-HRP, A450. The protocol:
as §1

In assay [6] the target is T1, soluble human TNFR2. The description is as above. The procedure:
as §1
This is another data set of the same source.

Assay [7] has as its target T2, soluble cynomolgus TNFR2. Nature of the assay: competition ELISA: plate-bound soluble cynomolgus TNFR2, competitor biotinylated TNFα, streptavidin-HRP, A450. The procedure:
as §1

The target of assay [8] is T2, soluble cynomolgus TNFR2. The assay is described as above. The procedure:
as §1
The source holds these as a separate data set.

Assay [9] has as its target T1, soluble human TNFR2. Nature of the assay: competition ELISA: plate-bound soluble human TNFR2, competitor biotinylated TNFα; IC50 relative to unlabelled TNFα = 1.00. The procedure: as §1
The target of assay [10] is T1, soluble human TNFR2. The assay is described as above. The procedure: as §1, §2
The source holds these as a separate data set.

In assay [11] the target is T2, soluble cynomolgus TNFR2. Nature of the assay: competition ELISA: plate-bound soluble cynomolgus TNFR2, competitor biotinylated TNFα; IC50 relative to unlabelled TNFα = 1.00. The protocol: as §1
In assay [12] the target is T2, soluble cynomolgus TNFR2. The assay is described as above. The protocol:
as §1, §2
This is another data set of the same source.

Residue numbers refer to the chain shown, from its start. Where two headings read alike, the source gives them in different places.

B1: chimeric SBT-004 (antibody, V domains shown)
VH: EVQLQQSGPEVGRPGSSVKISCKASGYTFTDYIMHWVKQSPGQGLEWIGWVDPEYGSTDYAEKFKKKATLTADTSSNTAYIQLSSLTSEDTATYFCARDDGSYSPFDYWGQGVMVTVSS
VL: DIQMTQSPPSLSASLGDKVTITCQASQNINKYIAWYQQKPGKAPRLLIRYTSTLESGTPSRFSGSGSGRDYSFSISNVESEDIASYYCLQYVNLLTFGAGTKLEIK
notes: VH fused to a human IgG1 Fc domain; also called chSBT-004
In the case of B1, the “Average Relative IC50” value worked out at 5.07 nM in assay [1] and 3.64 in assay [2]. The figures for the Kd in [3] and in assay [4] were 3.6 nM and 3.4 nM, respectively. Further, the 50% inhibitory concentration (IC50) in [5] was 16.7 nM; in assay [6], 19.6 nM; in assay [7], 16.7 nM; in assay [8], 31 nM. In addition, the “Relative IC50” value in [9] worked out at 6.72 nM; in assay [10], 3.54 nM; in assay [11] it was 4.45 nM; in assay [12], 3.22 nM.

B2: chimeric SBT-002 (antibody, V domains shown)
VH: QVTLKESGPGILQPSQTLSLTCSFSGFSLSTSGMGVGWIRQPSGKGLEWLAHIWWDDDKFYNPSLKSQLTISKDTSRNQVFLKLTSVVTADTATYYCARLTGTRYFDYWGQGTTLTVSS
VL: DVQMTQSPSSLSASLGGKVTITCKASQDINKFIAWYQHKPGKGPRLLIHYTSTLQPGIPSKFSGSGSGRDYSFSISNLEPEDIATYYCLQYGNLWTFGGGTKLEIT
notes: also called chSBT-002
With B2, the “Average Relative IC50” value in assay [1] is 2.91 nM; in assay [2], 3.38. Also, the Kd in [3] was 0.8 nM; in [4], 0.62 nM. In addition, the half-inhibitory concentration (IC50) in assay [5] came out at 7.53 nM; in assay [6] it was 16.5 nM; in [7] it was 15.6 nM; in assay [8], 27.6 nM. Further, the “Relative IC50” value in [9] was 3.03 nM; in [10] it was 2.98 nM; in [11], 4.16 nM; in assay [12], 2.87 nM.
